Test results: the supplement of paper PMC7877785
± gives the uncertainty stated by the source.

Assay: self-splicing fitness, log relative to wild type (ln ratio); higher = more splicing; Tetrahymena group I intron in knt gene, E. coli kanamycin selection, DiMSum; sequences stand for … in CUCUCU…GGAGGGAAAAGUUAUCAGGCAUGCACCUGGUAGCUAGUCUUUAAACCAAUAGAUUGCAUCGGUUUAAAAGGCAAGACCGUCAAAUUGCGGGAAAGGGGUCAACAGCCGUUCAGUACCAAGUCUCAGGGGAAACUUUGAGAUGGCCUUGCAAAGGGUAUGGUAAUAAGCUGACGGACAUGGUCCUAACCACGCAGCCAAGUCCUAAGUCAACAGAUCUUCUGUUGAUAUGGAUGCAGUUCACAGACUAAAUGUCGGUCGGGGAAGAUGUAUUCUUCUCAUAAGAUAUAGUCGGACCUCUCCUUAAUGGGAGCUAGCGGAUGAAGUGAUGCAACACUGGAGCCGCUGGGAACUAAUUUGUAUGCGAAAGUAUAUUGAUUAGUUUUGGAGUACUCGUGGUCG
Summary of the method: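 A randomised library covering all eight P1ex-region intron nucleotides was built with the intron in the knt kanamycin-resistance gene on pET-22b(+) and held in E. coli BL21(DE3). Cells were grown overnight at 37°C or 30°C on LB agar, with or without 25 μg/mL kanamycin, plus 100 μg/mL carbenicillin, 50 μM IPTG and 0.2% rhamnose, and pooled colonies were amplicon-sequenced on an Illumina HiSeq 2500. DiMSum fitness is the error-weighted combination of wild-type-normalised replicate fold changes, kanamycin versus none.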

Sequence: CUACAGCAAUAUUACGAACA
- self-splicing fitness (ln) (30 °C): -2.94 ± 0.18
- self-splicing fitness (ln) (37 °C): -2.49 ± 0.21

Sequence: UAGAAGCAAUAUUACGCGCU
- self-splicing fitness (ln) (30 °C): -1.28 ± 0.16
- self-splicing fitness (ln) (37 °C): -1.85 ± 0.17

Sequence: GAGGAGCAAUAUUACGAGAA
- self-splicing fitness (ln) (30 °C): -1.98 ± 0.41
- self-splicing fitness (ln) (37 °C): -2.44 ± 0.33

Sequence: UUGUAGCAAUAUUACGCUAA
- self-splicing fitness (ln) (30 °C): -0.865 ± 0.17
- self-splicing fitness (ln) (37 °C): -0.386 ± 0.19

Sequence: AUCCAGCAAUAUUACGGCAU
- self-splicing fitness (ln) (30 °C): -0.192 ± 0.071
- self-splicing fitness (ln) (37 °C): 0.204 ± 0.082

Sequence: GUUCAGCAAUAUUACGGAUU
- self-splicing fitness (ln) (30 °C): -0.537 ± 0.092
- self-splicing fitness (ln) (37 °C): 0.247 ± 0.14

Sequence: CCAAAGCAAUAUUACGAGAU
- self-splicing fitness (ln) (30 °C): -3.13 ± 0.2
- self-splicing fitness (ln) (37 °C): -2.5 ± 0.23

Sequence: AAUAAGCAAUAUUACGUCAU
- self-splicing fitness (ln) (30 °C): -1.39 ± 0.062
- self-splicing fitness (ln) (37 °C): -0.608 ± 0.092

Sequence: UACGAGCAAUAUUACGACUA
- self-splicing fitness (ln) (30 °C): -0.65 ± 0.085
- self-splicing fitness (ln) (37 °C): -0.167 ± 0.1

Sequence: UAGCAGCAAUAUUACGUGCA
- self-splicing fitness (ln) (30 °C): -0.411 ± 0.082
- self-splicing fitness (ln) (37 °C): -0.287 ± 0.086

Sequence: AGGAAGCAAUAUUACGUCCU
- self-splicing fitness (ln) (30 °C): -3.89 ± 0.16
- self-splicing fitness (ln) (37 °C): -2.04 ± 0.15

Sequence: GGCGAGCAAUAUUACGCCUU
- self-splicing fitness (ln) (30 °C): -3.21 ± 0.3
- self-splicing fitness (ln) (37 °C): -1.81 ± 0.26

Sequence: UCAGAGCAAUAUUACGAAUG
- self-splicing fitness (ln) (30 °C): -1.78 ± 0.24
- self-splicing fitness (ln) (37 °C): -2.76 ± 0.38

Sequence: CCGAAGCAAUAUUACGACAA
- self-splicing fitness (ln) (30 °C): -3.59 ± 0.4
- self-splicing fitness (ln) (37 °C): -2.52 ± 0.29

Sequence: UAAAAGCAAUAUUACGACGA
- self-splicing fitness (ln) (30 °C): -0.526 ± 0.087
- self-splicing fitness (ln) (37 °C): -0.201 ± 0.086

Sequence: GAUCAGCAAUAUUACGGCUC
- self-splicing fitness (ln) (30 °C): 0.00813 ± 0.1
- self-splicing fitness (ln) (37 °C): 0.687 ± 0.12

Sequence: UGAGAGCAAUAUUACGGAGC
- self-splicing fitness (ln) (30 °C): -2.21 ± 0.18
- self-splicing fitness (ln) (37 °C): -1.94 ± 0.19

Sequence: UACCAGCAAUAUUACGUAAC
- self-splicing fitness (ln) (30 °C): -2.64 ± 0.13
- self-splicing fitness (ln) (37 °C): -2.18 ± 0.2

Sequence: UGUUAGCAAUAUUACGUUUC
- self-splicing fitness (ln) (30 °C): -3.91 ± 0.46
- self-splicing fitness (ln) (37 °C): -2.06 ± 0.33

Sequence: UCCAAGCAAUAUUACGAAAU
- self-splicing fitness (ln) (30 °C): -2.02 ± 0.2
- self-splicing fitness (ln) (37 °C): -1.98 ± 0.21

Sequence: AGCCAGCAAUAUUACGGCUU
- self-splicing fitness (ln) (30 °C): -4.74 ± 0.41
- self-splicing fitness (ln) (37 °C): -2.89 ± 0.21

Sequence: GACCAGCAAUAUUACGCUAC
- self-splicing fitness (ln) (37 °C): -2.47 ± 0.3

Sequence: UAGAAGCAAUAUUACGGGGA
- self-splicing fitness (ln) (30 °C): -2.39 ± 0.14
- self-splicing fitness (ln) (37 °C): -0.988 ± 0.12

Sequence: UAUUAGCAAUAUUACGAGGU
- self-splicing fitness (ln) (30 °C): -2.64 ± 0.24
- self-splicing fitness (ln) (37 °C): -2.27 ± 0.35

Sequence: GCGUAGCAAUAUUACGUCAA
- self-splicing fitness (ln) (37 °C): -2.38 ± 0.32

Sequence: UCCCAGCAAUAUUACGCACG
- self-splicing fitness (ln) (30 °C): -3.4 ± 0.17
- self-splicing fitness (ln) (37 °C): -2.6 ± 0.23

Sequence: GAGUAGCAAUAUUACGACAC
- self-splicing fitness (ln) (30 °C): -0.768 ± 0.18
- self-splicing fitness (ln) (37 °C): -0.953 ± 0.27

Sequence: UGUAAGCAAUAUUACGGGAA
- self-splicing fitness (ln) (30 °C): -2.12 ± 0.17
- self-splicing fitness (ln) (37 °C): -2.08 ± 0.18

Sequence: UAAUAGCAAUAUUACGUACU
- self-splicing fitness (ln) (30 °C): -1.91 ± 0.094
- self-splicing fitness (ln) (37 °C): -0.805 ± 0.088

Sequence: CAUGAGCAAUAUUACGGAAU
- self-splicing fitness (ln) (30 °C): -4.62 ± 0.36
- self-splicing fitness (ln) (37 °C): -2.58 ± 0.28

Sequence: AUGAAGCAAUAUUACGUGGU
- self-splicing fitness (ln) (30 °C): -1.71 ± 0.07
- self-splicing fitness (ln) (37 °C): -1.31 ± 0.087

Sequence: GUGCAGCAAUAUUACGAUCA
- self-splicing fitness (ln) (30 °C): -1.14 ± 0.1
- self-splicing fitness (ln) (37 °C): -0.487 ± 0.12

Sequence: CAGCAGCAAUAUUACGGGAU
- self-splicing fitness (ln) (30 °C): -4.61 ± 0.22
- self-splicing fitness (ln) (37 °C): -2.35 ± 0.12

Sequence: GGAUAGCAAUAUUACGGCGG
- self-splicing fitness (ln) (30 °C): -1.95 ± 0.14
- self-splicing fitness (ln) (37 °C): -0.444 ± 0.13

Sequence: AGUAAGCAAUAUUACGCAAC
- self-splicing fitness (ln) (37 °C): -2.61 ± 0.38

Sequence: AACCAGCAAUAUUACGCUCU
- self-splicing fitness (ln) (30 °C): -0.0812 ± 0.054
- self-splicing fitness (ln) (37 °C): 0.0106 ± 0.07

Sequence: GAAUAGCAAUAUUACGAUAA
- self-splicing fitness (ln) (30 °C): -1.51 ± 0.1
- self-splicing fitness (ln) (37 °C): -0.77 ± 0.13

Sequence: AGUGAGCAAUAUUACGCAUC
- self-splicing fitness (ln) (30 °C): -3.32 ± 0.28
- self-splicing fitness (ln) (37 °C): -0.505 ± 0.26

Sequence: ACUGAGCAAUAUUACGAAAA
- self-splicing fitness (ln) (37 °C): -1.32 ± 0.43

Sequence: UAACAGCAAUAUUACGAGUU
- self-splicing fitness (ln) (30 °C): -2.87 ± 0.11
- self-splicing fitness (ln) (37 °C): -1.8 ± 0.12

Sequence: CAGAAGCAAUAUUACGCCGA
- self-splicing fitness (ln) (30 °C): -3.49 ± 0.41
- self-splicing fitness (ln) (37 °C): -2.75 ± 0.33

Sequence: CCCAAGCAAUAUUACGGGCC
- self-splicing fitness (ln) (30 °C): -3.98 ± 0.22
- self-splicing fitness (ln) (37 °C): -2.08 ± 0.19

Sequence: AUGCAGCAAUAUUACGCAAC
- self-splicing fitness (ln) (30 °C): -2.42 ± 0.18
- self-splicing fitness (ln) (37 °C): -2.58 ± 0.2

Sequence: CUAUAGCAAUAUUACGUGCU
- self-splicing fitness (ln) (30 °C): -3.61 ± 0.33
- self-splicing fitness (ln) (37 °C): -2.56 ± 0.32

Sequence: GCACAGCAAUAUUACGCUCU
- self-splicing fitness (ln) (30 °C): -0.938 ± 0.091
- self-splicing fitness (ln) (37 °C): -0.131 ± 0.1

Sequence: GCUUAGCAAUAUUACGUGGC
- self-splicing fitness (ln) (30 °C): -3.12 ± 0.22
- self-splicing fitness (ln) (37 °C): -1.44 ± 0.4

Sequence: GAUAAGCAAUAUUACGAGGU
- self-splicing fitness (ln) (30 °C): -3.42 ± 0.13
- self-splicing fitness (ln) (37 °C): -2.79 ± 0.13

Sequence: GUACAGCAAUAUUACGGAAA
- self-splicing fitness (ln) (30 °C): -2.77 ± 0.22
- self-splicing fitness (ln) (37 °C): -2.72 ± 0.25

Sequence: UUGUAGCAAUAUUACGCCCU
- self-splicing fitness (ln) (30 °C): -0.23 ± 0.24
- self-splicing fitness (ln) (37 °C): -0.0821 ± 0.2
